In patent US12091454B2, “Humanized anti-human neurotensin receptor 1 antibodies and their uses” (DEVELOPMENT CENTER FOR BIOTECHNOLOGY, priority 2022, dated 2024):
Positions count from the first letter of the chain named. “And” between values parts separate entries of the source, which are not always exact repeats. Identical values can stand only once.

Tests used:
[1] = test system: NTSR1 expressing cells, FaDu; assay: Cell-binding assay by FACS; set-up: species or system human
Experimental: Anti-NTSR1 antibodies were used to detect cells that express NTSR1 on the cell surfaces, for example using FACS. NTSR1 expressing cells, FaDu, were harvested and re-suspended in 5% PBS/FBS buffer. The cells (1×10^5) were incubated with anti-NTSR1 antibody (1-10 μg/ml) or negative control, at 4° C. for 1 hr, and then stained with goat anti-human IgG FITC conjugate ( 1/1000) at 4° C. for 1 hr. For each assay, two additional controls were prepared; one without primary antibody and the other one with absence of any antibody. All treated samples were analyzed with FACSVERSE™ (BECTON DICKINSON®) and the results were processed by FACSUITE™ software (BECTON DICKINSON®).

[2] = molecular target: NTSR1 linear L2-biotin protein; assay: Binding affinity of the humanized antibodies by ELISA; set-up: species or system human; conditions: for Kd: binding ELISA, non-linear regression; for binding signal for NTSR1 in binding ELISA: FIG. 4
Experimental: ELISA plates were coated with 1-2 μg/100 μL per well of NTSR1 linear L2-biotin protein. Wells were rinsed for 3 times with PBS and blocked with 300 μL of 5% MPBS per well for 2 hr at 37° C. After washing with PBS, wells were incubated with serial diluted NTSR1 antibodies in 5% MPBS for 1.5 hours at 37° C. The plates were washed and goat polyclonal anti-human IgG-HRP antibody (1:10,000) (JACKSON IMMUNORESEARCH®) was added into each well. The OD at 650 nm and at 450 nm was read. Readings were obtained by subtracting OD650 from OD450 and the binding affinities of antibodies were calculated by non-linear regression with Prism software (GRAPHPAD®).

[3] = test system: FaDu human head and neck cancer xenograft; assay: Xenograft model of anti-NTSR1 ADCs (head and neck cancer); type: in vivo, male NOD SCID mice; conditions: 5 mpk, IV, BIW × 3
Experimental: The aim of this study was to evaluate the in vivo anti-tumor efficacy of αNTSR1 (AKT2) 4seco-DUBA, αNTSR1 (AKT2 Hu/Hu) 4seco-DUBA, and αNTSR1 (AKT2 Hu/Hd) 4seco-DUBA in FaDu human head and neck cancer xenograft model in male NOD SCID mice.
Formulations respectively comprising test article αNTSR1 (AKT2) 4seco-DUBA, test article αNTSR1 (AKT2 Hu/Hu) 4seco-DUBA, test article αNTSR1 (AKT2 Hu/Hd) 4seco-DUBA, and Hu IgG were formulated by diluting the stock with a 25 mM sodium citrate buffer (pH 6.5). […]
The FaDu cells were maintained in vitro as a monolayer culture in RPMI-1640 medium supplemented with 10% fetal bovine serum at 37° C. in an atmosphere of 5% CO2 in air. The tumor cells were routinely sub-cultured twice weekly by trypsin-EDTA treatment. The cells growing in an exponential growth phase were harvested and counted for tumor inoculation.
Male NOD SCID mice at age of 6-7 weeks were quarantined for one week. Five mice were housed in each cage. All animals were hosted in the animal facility with a 12-h light/12-h dark cycle at 19-25° C. Animals had free access to rodent pellet foods and water ad libitum.
FaDu cells were subcutaneously (SC) implanted (4×10^6 cells in 1:1 PBS/matrigel mixture at 0.1 mL per mouse) into the right flank of male NOD SCID mice. When the average tumor volume had reached about 200 mm^3, the mice were randomly divided into 7 groups (N=6 per group). Each of Hu IgG, αNTSR1 (AKT2) 4seco-DUBA (5 mg/kg), αNTSR1 (AKT2 Hu/Hu) 4seco-DUBA (5 mg/kg), and αNTSR1 (AKT2 Hu/Hd) 4seco-DUBA (5 mg/kg) was intravenously administered twice weekly for 3 weeks.
The tumor volumes, body weights, mortality, and signs of overt toxicity were monitored and recorded three times weekly for 28 days. Tumor volumes (mm^3) were measured three times per week using calipers and calculated according to the formula: Tumor Volume=(w^2×l)/2, where w=width and l=length in diameter (mm) of the tumor. The percentages of tumor growth inhibition (TGI) were calculated using the following formula: % TGI=[1−(T/C)]×100%, where T and C represent the mean tumor volumes of the treatment group and the control group, respectively. A TGI (%) value≥58% was considered as indicating significant anti-tumor activity. Animals were weighed three times weekly until the completion of the study.

NTSR1 protein = NTSR1 protein (Homo sapiens, UniProt P30989); assay: SPR (BIACORE T200) multi-cycle kinetic assay; conditions: 25° C., one-to-one Langmuir binding model
Chain of NTSR1 protein (P30989 whole entry): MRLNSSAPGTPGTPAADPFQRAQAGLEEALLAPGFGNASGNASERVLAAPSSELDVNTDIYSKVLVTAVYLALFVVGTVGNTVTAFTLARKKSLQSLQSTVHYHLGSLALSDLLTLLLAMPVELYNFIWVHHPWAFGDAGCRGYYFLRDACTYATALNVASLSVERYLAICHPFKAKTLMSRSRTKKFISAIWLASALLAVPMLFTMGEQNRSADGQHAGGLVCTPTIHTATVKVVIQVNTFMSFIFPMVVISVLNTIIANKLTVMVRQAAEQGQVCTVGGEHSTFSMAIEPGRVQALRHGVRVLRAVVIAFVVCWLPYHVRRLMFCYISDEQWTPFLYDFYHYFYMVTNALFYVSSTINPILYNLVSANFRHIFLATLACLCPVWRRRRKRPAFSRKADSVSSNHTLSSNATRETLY
Experimental: To know the binding kinetics differences among individual anti-NTSR1 antibodies, surface plasmon resonance (SPR) measurement with BIACORE™ T200 (CYTIVA® Inc.) was used as previously described (Karlsson & Falt, (1997) J. Immunol Methods 200:121-133). Carboxymethylated dextran biosensor chips (CM5, CYTIVA® Inc.) were activated with N-ethyl-N′-(3-dimethylaminopropyl)-carbodiimide hydrochloride (EDC) and N-hydroxysuccinimide (NHS) according to the supplier's instructions. NTSR1 protein was diluted with 10 mM sodium acetate, pH 4.0, into 5 μg/ml before injection at a flow rate of 10 μL/minute to achieve approximately 1500 response units (RU) of coupled protein followed by the injection of 1 M ethanolamine to block unreacted groups. For kinetics measurements, two-fold serial dilutions of anti-NTSR1 mAb (0.3125 nM to 40 nM) were injected in HBS-EP+BIACORET™ running buffer provided by the manufacturer (CYTIVA® Inc.) at 25° C. at a flow rate of 30 μL/min, and binding responses on the NTSR1 protein were corrected by subtraction of responses on a blank flow cell. Association rates (kon or Ka) and dissociation rates (koff or Kd) were calculated using a simple one-to-one Langmuir binding model with separate fittings of kon and koff. (CYTIVA® BIACORET™ Insight Evaluation Software).

[4] = In vivo pharmacokinetic analysis (MSD ECL total antibody assay); conditions: BALB/c mice, 5 mg/kg via the tail vein
Excerpt: This Example used Meso Scale Discovery (MSD) Electrochemiluminescent (ECL) method to conduct the PK analysis of the anti-NTSR1 antibodies αNTSR1 (AKT2), αNTSR1 (AKT2 Hu/Hu) and αNTSR1 (AKT2 Hu/Hd) in BALB/c mice samples. The MSD assay can measure both conjugated and unconjugated antibodies. As illustrated in this example, for total antibody assay (including conjugated and unconjugated antibodies), the plate is coated with goat anti-human IgG, which can capture all humanized antibodies (conjugated and unconjugated).
The mice were administered at a dose level of 5 mg/kg via the tail vein. Blood samples were then obtained at different time points for determining the concentrations of αNTSR1 (AKT2), αNTSR1 (AKT2 Hu/Hu) and αNTSR1 (AKT2 Hu/Hd) in mice by MESO QuickPlex SQ 120 method. The PK parameters of αNTSR1 (AKT2), αNTSR1 (AKT2 Hu/Hu) and αNTSR1 (AKT2 Hu/Hd) were analyzed by noncompartmental analysis using PHOENIX™ for WinNonlin Program, version 6.3.

B1: 7C3 MM: mouse-human chimera anti-NTSR1 antibody, m7C3 VH (SEQ ID NO: 7) and m7C3 VL (SEQ ID NO: 8) (antibody, V domains shown)
VH: QVQLQQPGSVLVRPGDSVMLSCKASGYTFTSSWIHWAKQRPGQGPEWIGQIRPNSGNTYYNEKFKVKATLTVDTSSSTAYVDLSSLTSEDSAVYYCARYYYGFDYWGQGTTVTVSS
VL: DVLMTQTPLSLPVSLGDQASISCRSSQSIVHSNGNTYLEWYLQKPGQSPKLLIYKVSNRFSGVPDRFSGSGSGTDFTLKISRVEAEDLGVYYCFQGSHLPWTFGGGTKLEIK
In the case of B1, the “binding to FaDu cells” value ([1]; concentration of 1 μg/mL) is reported as “do not bind well”, the “binding to FaDu cells” value ([1]; concentration of 10 μg/mL) is reported as “do not bind significantly” and the Kd [2] is reported as 0.676 nM.

B2: AKT2: affinity-matured mouse-human chimera anti-NTSR1 antibody, AKT2 VH (SEQ ID NO: 9) and AKT2 VL (SEQ ID NO: 10) (antibody, V domains shown)
VH: B1 VH with D16A, M19K, T28A, P45L, Y100H, T111L
VL: B1 VL with S97A
In the case of B2, the “TGI % (1-T/C) Day 0” value ([3]; Day 0) is reported as 0.0%, the “TGI % (1-T/C) Day 5” value ([3]; Day 5) is reported as 11.1% and the “TGI % (1-T/C) Day 7” value ([3]; Day 7) is reported as 34.8%. For the same molecule, the “TGI % (1-T/C) Day 10” value ([3]; Day 10) was 31.0%, the “TGI % (1-T/C) Day 12” value ([3]; Day 12) was 31.1% and the “TGI % (1-T/C) Day 14” value ([3]; Day 14) was 29.9%. The “TGI % (1-T/C) Day 17” value ([3]; Day 17) was 21.6%, the “Ka (kon, association rate)” value (NTSR1 protein) was 406800 M⁻¹ s⁻¹ and the “Kd (koff, dissociation rate)” value (NTSR1 protein) was 0.0006558 s⁻¹. For the same molecule, the MRT ([4]; total antibody) was 89.6 ± 6.6 h, the Vss ([4]; total antibody) was 0.159 ± 0.010 L/kg and the t½ ([4]; total antibody) was 71.7 ± 5.1^ h. For the same molecule, the “in vivo half live” value ([4]; listed as αNTSR1 (AKT2), 5 mg/kg) was 71.7 ± 5.1 h and 71 h.

B3: 7C3 HuHu: humanized anti-NTSR1 antibody, 7C3 HuVH (SEQ ID NO: 13) and 7C3 HuVL (SEQ ID NO: 14) (antibody, V domains shown)
VH: QVQLVQSGAEVKKPGASVKVSCKASGYTFTSSWIHWVRQAPGQGLEWMGQIRPNSGNTYYNEKFKVRVTMTRDTSTSTVYMELSSLRSEDTAVYYCARYYYGFDYWGQGTLVTVSS
VL: DIVMTQTPLSLSVTPGQPASISCRSSQSIVHSNGNTYLEWYLQKPGQSPQLLIYKVSNRFSGVPDRFSGSGSGTDFTLKISRVEAEDVGVYYCFQGSHLPWTFGQGTKVEIK
In the case of B3, the “binding to FaDu cells” value ([1]; concentration of 1 μg/mL) is reported as “do not bind well”, the “binding to FaDu cells” value ([1]; concentration of 10 μg/mL) is reported as “do not bind significantly” and the “binding signal for NTSR1 in binding ELISA” value (“binding signal for NTSR1” below) [2] is reported as “good binding signal”. The Kd [2] was 0.294 nM.

B4: 7C3 HdHd: humanized anti-NTSR1 antibody, 7C3 HdVH (SEQ ID NO: 11) and 7C3 HdVL (SEQ ID NO: 12) (antibody, V domains shown)
VH: EVQLVESGGGLVQPGGSLRLSCAASGYTFTSSWIHWVRQAPGKGLEWVAQIRPNSGNTYYNEKFKVRFTISRDDSKNTLYLQMNSLRAEDTAVYYCARYYYGFDYWGQGTLVTVSS
VL: DIQMTQSPSSLSASVGDRVTITCRSSQSIVHSNGNTYLEWYQQKPGKAPKLLIYKVSNRFSGVPSRFSGSGSGTDFTLTISSLQPEDFATYYCFQGSHLPWTFGQGTKVEIK
With B4 the “binding signal for NTSR1” value [2] was “much lower binding signals”.

B5: 7C3 HuHd: humanized anti-NTSR1 antibody, 7C3 HuVH paired with 7C3 HdVL (antibody, V domains shown)
VH: B3 VH
VL: B4 VL
In the case of B5, the “binding to FaDu cells” value ([1]; concentration of 1 μg/mL) is reported as “do not bind well”, the “binding to FaDu cells” value ([1]; concentration of 10 μg/mL) is reported as “do not bind significantly” and the “binding signal for NTSR1” value [2] is reported as “good binding signal”.

B6: 7C3 HdHu: humanized anti-NTSR1 antibody, presumably 7C3 HdVH paired with 7C3 HuVL (antibody, V domains shown)
VH: B4 VH
VL: B3 VL
For B6, the “binding signal for NTSR1” value [2] was “much lower binding signals”.
